This test deals with p53-binding domain of human MdmX (N-MdmX, amino acids 22-110) (human) (UniProt O15151). Briefly: ITC; ITC-200 at 25 °C; 19 injections of 2.0 µL of ~0.2 mM ligand into ~10–20 µM protein in the cell; one-set-of-binding-sites model. Background: ITC needs no label: the signal is the heat of the interaction.
p53-binding domain of human MdmX (N-MdmX, amino acids 22-110) (human), sequence (O15151 22-110): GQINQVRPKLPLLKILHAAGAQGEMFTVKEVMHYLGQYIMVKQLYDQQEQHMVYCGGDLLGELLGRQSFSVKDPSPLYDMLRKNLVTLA

Take “p53 transactivation domain peptide (p53p)”: the Kd – broadly, the free concentration of one partner at which half of the binding sites on the other are occupied at equilibrium, for simple one-to-one binding – was 360 nM. This lies in the sub-micromolar range.

The values are drawn from paper PMC8885691, “Leveraging the multivalent p53 peptide-MdmX interaction to guide the improvement of small molecule inhibitors” (Nature Communications, 2022).
